In patent US11278600B2, “Human alpha-galactosidase variants” (Codexis, Inc., priority 2014, dated 2022):
Residue numbers refer to the chain shown, from its start.

Tests used:
Format in all cases: biochemical
[1] = HTP-analysis of yeast culture supernatants, no challenge (MUGal hydrolysis); details: activity of the variant/activity of Rd3BB (SEQ ID NO: 13)
Outline: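 GLA variants were expressed in INVSc1 yeast grown in SD-Ura broth with glucose at 30° C., and culture supernatants were collected after 66-84 h. Supernatant was mixed with McIlvaine buffer pH 4.8 and MUGal (2 mM stock) in 50 mM citrate, 200 mM KCl, pH 4.6, incubated at 37° C. for 30-180 minutes, then quenched with sodium carbonate.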

[2] = HTP-analysis of supernatants pretreated with acid (MUGal hydrolysis); details: activity of the variant/activity of Rd3BB (SEQ ID NO: 13); challenge at pH 3.7
Outline: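 Supernatants from INVSc1 yeast secreting GLA variants were challenged at 37° C. for 1-3 h in McIlvaine buffer at pH 3.3-4.3. Residual activity was then measured on 4 mM MUGal substrate stock at pH 4.8 with citrate buffer pH 4.3, over 30-180 min at 37° C. Reactions were quenched with sodium carbonate and read by fluorescence (Ex 355/Em 448 nm).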

[3] = HTP-analysis of supernatants pretreated with base (MUGal hydrolysis); details: activity of the variant/activity of Rd3BB (SEQ ID NO: 13); challenge at pH 9.7
Outline: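 GLA variants were secreted by transformed INVSc1 yeast grown 66-84 h at 30° C. Supernatants were exposed to neutral-to-basic buffers (pH 7.0-9.7) at 37° C for 1-18 h, then assayed with MUGal in acidic citrate/McIlvaine buffer, with fluorescence read after quenching.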

B1: 586 (protein)
chain: LDNGLARTPTMGWLHWERFMCNLDCQEEPDSCISEKLFMEMAERMVSEGWKDAGYEYLCIDDCWMAPQRDSEGRLQADPQRFPHGIRQLANHVHSKGLKLGIYADVGNKTCAGFPGSFGYYDIDAQTFADWGVDLLKFDGCYCDSLENLADGYKHMSLALNRTGRSIVYSCEWPLYMWPFQKPNYTEIRQYCNHWRNFADIDDSWASIKNILDWTSRNQERIVDVAGPGGWNDPDMLVIGNFGLSWDQQVTQMALWAIMAAPLFMSNDLRHISPQAKALLQDKDVIAINQDPLGKQGYQLRKGDNFEVWERPLSGDAWAVAIINRQEIGGPRSYTIPVASLGKGVACNPACFITQLLPVKRQLGFYNWTSRLKSHINPTGTVLLQLENTMQMSLKDLL
modifications: Synthetic Polypeptide sequence of Variant No. 586 of mature Human GLA
- Relative Activity of GLA Variants After No Challenge (NC) [1]: + (+ = 1.5 to 5 relative activity over Rd3BB (SEQ ID NO: 13))
- Relative Activity of GLA Variants After Challenge at pH 3.7 [2]: ++ (++ = >5 to 10 relative activity over Rd3BB (SEQ ID NO: 13))
- Relative Activity of GLA Variants After Challenge at pH 9.7 [3]: ++ (++ = >5 to 10 relative activity over Rd3BB (SEQ ID NO: 13))

B2: 599 (protein)
chain: B1 chain with Y120S, N210S
modifications: Synthetic Polypeptide sequence of Variant No. 599 of mature Human GLA
- Relative Activity of GLA Variants After No Challenge (NC) [1]: + (+ = 1.5 to 5 relative activity over Rd3BB (SEQ ID NO: 13))
- Relative Activity of GLA Variants After Challenge at pH 3.7 [2]: + (+ = 1.5 to 5 relative activity over Rd3BB (SEQ ID NO: 13))
- Relative Activity of GLA Variants After Challenge at pH 9.7 [3]: ++ (++ = >5 to 10 relative activity over Rd3BB (SEQ ID NO: 13))

B3: 592 (protein)
chain: B1 chain with R189V, N210S
modifications: Synthetic Polypeptide sequence of Variant No. 592 of mature Human GLA
- Relative Activity of GLA Variants After No Challenge (NC) [1]: + (+ = 1.5 to 5 relative activity over Rd3BB (SEQ ID NO: 13))
- Relative Activity of GLA Variants After Challenge at pH 3.7 [2]: + (+ = 1.5 to 5 relative activity over Rd3BB (SEQ ID NO: 13))
- Relative Activity of GLA Variants After Challenge at pH 9.7 [3]: ++ (++ = >5 to 10 relative activity over Rd3BB (SEQ ID NO: 13))

B4: 521 (protein)
chain: B1 chain with D52N, N210S
modifications: Synthetic Polypeptide sequence of Variant No. 521 of mature Human GLA
- Relative Activity of GLA Variants After No Challenge (NC) [1]: + (+ = 1.5 to 5 relative activity over Rd3BB (SEQ ID NO: 13))
- Relative Activity of GLA Variants After Challenge at pH 3.7 [2]: + (+ = 1.5 to 5 relative activity over Rd3BB (SEQ ID NO: 13))
- Relative Activity of GLA Variants After Challenge at pH 9.7 [3]: ++ (++ = >5 to 10 relative activity over Rd3BB (SEQ ID NO: 13))

B5: 588 (protein)
chain: B1 chain with K96A, N210S
modifications: Synthetic Polypeptide sequence of Variant No. 588 of mature Human GLA
- Relative Activity of GLA Variants After No Challenge (NC) [1]: + (+ = 1.5 to 5 relative activity over Rd3BB (SEQ ID NO: 13))
- Relative Activity of GLA Variants After Challenge at pH 3.7 [2]: + (+ = 1.5 to 5 relative activity over Rd3BB (SEQ ID NO: 13))
- Relative Activity of GLA Variants After Challenge at pH 9.7 [3]: + (+ = 1.5 to 5 relative activity over Rd3BB (SEQ ID NO: 13))

B6: 589 (protein)
chain: B1 chain with K96W, N210S
modifications: Synthetic Polypeptide sequence of Variant No. 589 of mature Human GLA
- Relative Activity of GLA Variants After No Challenge (NC) [1]: + (+ = 1.5 to 5 relative activity over Rd3BB (SEQ ID NO: 13))
- Relative Activity of GLA Variants After Challenge at pH 3.7 [2]: + (+ = 1.5 to 5 relative activity over Rd3BB (SEQ ID NO: 13))
- Relative Activity of GLA Variants After Challenge at pH 9.7 [3]: + (+ = 1.5 to 5 relative activity over Rd3BB (SEQ ID NO: 13))

B7: 597 (protein)
chain: B1 chain with T186V, N210S
modifications: Synthetic Polypeptide sequence of Variant No. 597 of mature Human GLA
- Relative Activity of GLA Variants After No Challenge (NC) [1]: + (+ = 1.5 to 5 relative activity over Rd3BB (SEQ ID NO: 13))
- Relative Activity of GLA Variants After Challenge at pH 3.7 [2]: − (− = <1.5 relative activity to Rd3BB (SEQ ID NO: 13))
- Relative Activity of GLA Variants After Challenge at pH 9.7 [3]: + (+ = 1.5 to 5 relative activity over Rd3BB (SEQ ID NO: 13))

B8: 587 (protein)
chain: B1 chain with N210R
modifications: Synthetic Polypeptide sequence of Variant No. 587 of mature Human GLA
- Relative Activity of GLA Variants After No Challenge (NC) [1]: + (+ = 1.5 to 5 relative activity over Rd3BB (SEQ ID NO: 13))
- Relative Activity of GLA Variants After Challenge at pH 3.7 [2]: + (+ = 1.5 to 5 relative activity over Rd3BB (SEQ ID NO: 13))
- Relative Activity of GLA Variants After Challenge at pH 9.7 [3]: ++ (++ = >5 to 10 relative activity over Rd3BB (SEQ ID NO: 13))

B9: 590 (protein)
chain: B1 chain with P179M, N210S
modifications: Synthetic Polypeptide sequence of Variant No. 590 of mature Human GLA
- Relative Activity of GLA Variants After No Challenge (NC) [1]: + (+ = 1.5 to 5 relative activity over Rd3BB (SEQ ID NO: 13))
- Relative Activity of GLA Variants After Challenge at pH 3.7 [2]: + (+ = 1.5 to 5 relative activity over Rd3BB (SEQ ID NO: 13))
- Relative Activity of GLA Variants After Challenge at pH 9.7 [3]: + (+ = 1.5 to 5 relative activity over Rd3BB (SEQ ID NO: 13))

B10: 594 (protein)
chain: B1 chain with S95E, N210S
modifications: Synthetic Polypeptide sequence of Variant No. 594 of mature Human GLA
- Relative Activity of GLA Variants After No Challenge (NC) [1]: + (+ = 1.5 to 5 relative activity over Rd3BB (SEQ ID NO: 13))
- Relative Activity of GLA Variants After Challenge at pH 3.7 [2]: + (+ = 1.5 to 5 relative activity over Rd3BB (SEQ ID NO: 13))
- Relative Activity of GLA Variants After Challenge at pH 9.7 [3]: ++ (++ = >5 to 10 relative activity over Rd3BB (SEQ ID NO: 13))

B11: 595 (protein)
chain: B1 chain with T186A, N210S
modifications: Synthetic Polypeptide sequence of Variant No. 595 of mature Human GLA
- Relative Activity of GLA Variants After No Challenge (NC) [1]: + (+ = 1.5 to 5 relative activity over Rd3BB (SEQ ID NO: 13))
- Relative Activity of GLA Variants After Challenge at pH 3.7 [2]: + (+ = 1.5 to 5 relative activity over Rd3BB (SEQ ID NO: 13))
- Relative Activity of GLA Variants After Challenge at pH 9.7 [3]: + (+ = 1.5 to 5 relative activity over Rd3BB (SEQ ID NO: 13))

B12: 600 (protein)
chain: B1 chain with Y120S, N210S, L341F
modifications: Synthetic Polypeptide sequence of Variant No. 600 of mature Human GLA
- Relative Activity of GLA Variants After No Challenge (NC) [1]: + (+ = 1.5 to 5 relative activity over Rd3BB (SEQ ID NO: 13))
- Relative Activity of GLA Variants After Challenge at pH 3.7 [2]: +++ (+++ = >10 relative activity over Rd3BB (SEQ ID NO: 13))
- Relative Activity of GLA Variants After Challenge at pH 9.7 [3]: + (+ = 1.5 to 5 relative activity over Rd3BB (SEQ ID NO: 13))

B13: 593 (protein)
chain: B1 chain with S95A, N210S
modifications: Synthetic Polypeptide sequence of Variant No. 593 of mature Human GLA
- Relative Activity of GLA Variants After No Challenge (NC) [1]: + (+ = 1.5 to 5 relative activity over Rd3BB (SEQ ID NO: 13))
- Relative Activity of GLA Variants After Challenge at pH 3.7 [2]: + (+ = 1.5 to 5 relative activity over Rd3BB (SEQ ID NO: 13))
- Relative Activity of GLA Variants After Challenge at pH 9.7 [3]: ++ (++ = >5 to 10 relative activity over Rd3BB (SEQ ID NO: 13))

B14: 596 (protein)
chain: B1 chain with T186G, N210S
modifications: Synthetic Polypeptide sequence of Variant No. 596 of mature Human GLA
- Relative Activity of GLA Variants After No Challenge (NC) [1]: + (+ = 1.5 to 5 relative activity over Rd3BB (SEQ ID NO: 13))
- Relative Activity of GLA Variants After Challenge at pH 3.7 [2]: ++ (++ = >5 to 10 relative activity over Rd3BB (SEQ ID NO: 13))
- Relative Activity of GLA Variants After Challenge at pH 9.7 [3]: ++ (++ = >5 to 10 relative activity over Rd3BB (SEQ ID NO: 13))

B15: 598 (protein)
chain: B1 chain with Y120H, N210S
modifications: Synthetic Polypeptide sequence of Variant No. 598 of mature Human GLA
- Relative Activity of GLA Variants After No Challenge (NC) [1]: + (+ = 1.5 to 5 relative activity over Rd3BB (SEQ ID NO: 13))
- Relative Activity of GLA Variants After Challenge at pH 3.7 [2]: + (+ = 1.5 to 5 relative activity over Rd3BB (SEQ ID NO: 13))
- Relative Activity of GLA Variants After Challenge at pH 9.7 [3]: ++ (++ = >5 to 10 relative activity over Rd3BB (SEQ ID NO: 13))

B16: 591 (protein)
chain: B1 chain with R189K, N210S
modifications: Synthetic Polypeptide sequence of Variant No. 591 of mature Human GLA
- Relative Activity of GLA Variants After No Challenge (NC) [1]: + (+ = 1.5 to 5 relative activity over Rd3BB (SEQ ID NO: 13))
- Relative Activity of GLA Variants After Challenge at pH 3.7 [2]: + (+ = 1.5 to 5 relative activity over Rd3BB (SEQ ID NO: 13))
- Relative Activity of GLA Variants After Challenge at pH 9.7 [3]: ++ (++ = >5 to 10 relative activity over Rd3BB (SEQ ID NO: 13))
